# Reference: patent publication US20240084003A1 (SIMCERE ZAIMING PHARMACEUTICAL, published 2024)
# T1: human CD22 domain5-7-His (human, UniProt P20273 414-687)
# T1 construct: also called hCD22 domain5-7-His; not shown: His tag
# T1 sequence: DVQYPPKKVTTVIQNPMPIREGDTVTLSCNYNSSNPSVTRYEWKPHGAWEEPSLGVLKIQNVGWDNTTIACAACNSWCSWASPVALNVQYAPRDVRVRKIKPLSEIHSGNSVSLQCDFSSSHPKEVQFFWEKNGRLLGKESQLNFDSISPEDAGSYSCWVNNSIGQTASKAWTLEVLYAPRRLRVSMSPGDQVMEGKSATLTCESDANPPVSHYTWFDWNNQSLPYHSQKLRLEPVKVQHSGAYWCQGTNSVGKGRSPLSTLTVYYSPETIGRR
# T2: rhesus monkey CD22-ECD-His protein (rhesus monkey, UniProt H9G1X2 18-686)
# T2 construct: extracellular domain; also called monkey CD22 protein
# T2 sequence: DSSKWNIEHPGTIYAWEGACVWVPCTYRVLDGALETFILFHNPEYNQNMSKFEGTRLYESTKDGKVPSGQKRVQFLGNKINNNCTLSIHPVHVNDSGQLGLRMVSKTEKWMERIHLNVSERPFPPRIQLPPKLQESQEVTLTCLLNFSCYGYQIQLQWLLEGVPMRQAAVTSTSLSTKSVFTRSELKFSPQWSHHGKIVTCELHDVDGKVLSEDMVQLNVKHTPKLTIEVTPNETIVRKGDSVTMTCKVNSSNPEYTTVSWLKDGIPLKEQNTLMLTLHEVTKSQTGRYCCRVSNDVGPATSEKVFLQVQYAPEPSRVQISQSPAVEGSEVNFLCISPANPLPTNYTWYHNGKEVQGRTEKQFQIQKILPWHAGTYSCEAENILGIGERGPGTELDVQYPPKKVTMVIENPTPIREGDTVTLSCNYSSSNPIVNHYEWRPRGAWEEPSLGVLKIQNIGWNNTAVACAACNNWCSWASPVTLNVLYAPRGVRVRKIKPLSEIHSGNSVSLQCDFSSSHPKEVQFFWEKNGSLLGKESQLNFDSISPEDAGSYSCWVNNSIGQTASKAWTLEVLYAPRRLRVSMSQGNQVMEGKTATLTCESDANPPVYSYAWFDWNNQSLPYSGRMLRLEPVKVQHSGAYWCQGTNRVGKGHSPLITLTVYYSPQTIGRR
# T3: human CD22-ECD-His protein (human, UniProt P20273 20-687)
# T3 construct: Recombinant, from HEK293E cells; also called hCD22-ECD-His; human CD22-His protein; not shown: His tag
# T3 sequence: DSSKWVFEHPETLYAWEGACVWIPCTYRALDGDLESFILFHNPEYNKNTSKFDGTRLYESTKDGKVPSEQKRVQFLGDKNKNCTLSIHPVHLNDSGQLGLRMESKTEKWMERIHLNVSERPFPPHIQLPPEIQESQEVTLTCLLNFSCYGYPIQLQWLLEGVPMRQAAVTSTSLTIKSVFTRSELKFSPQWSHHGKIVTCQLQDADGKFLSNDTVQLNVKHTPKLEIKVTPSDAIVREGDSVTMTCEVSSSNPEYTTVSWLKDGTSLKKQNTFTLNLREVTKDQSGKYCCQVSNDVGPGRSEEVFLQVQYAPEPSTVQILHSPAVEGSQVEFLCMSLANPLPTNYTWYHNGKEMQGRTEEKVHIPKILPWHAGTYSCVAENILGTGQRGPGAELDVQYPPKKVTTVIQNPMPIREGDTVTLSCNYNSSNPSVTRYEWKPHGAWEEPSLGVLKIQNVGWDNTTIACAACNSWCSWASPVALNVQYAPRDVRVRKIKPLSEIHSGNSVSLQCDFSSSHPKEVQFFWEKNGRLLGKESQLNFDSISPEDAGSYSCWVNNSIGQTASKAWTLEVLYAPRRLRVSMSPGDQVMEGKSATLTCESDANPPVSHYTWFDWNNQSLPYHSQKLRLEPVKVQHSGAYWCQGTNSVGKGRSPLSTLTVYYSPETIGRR
# B1: F1.250.16 (antibody, human IgG1, kappa, V domains shown)
# VH: QVQLQQSGAEQVKPGASVKMSCKASGYTFTTYPIEWMKQNHGESLDWIGNIHPYNDDTEYNEKFKGKATLTVEKSSNTVFLELSRLTSDDSAVYYCVRGDYYNSRYWYFDVWGTGTTVTVSS
# VL: DIVMTQSQKFMSTTVGDRVSITCKAGQNVRTAVAWYQQKPGQSPKLLIYSASTRYIGVPERFTGSGSGTDFTLTITNMQSEDLADYFCQQYSSFPLTFGTGTKLELKR
# notes: Chimeric IgG1 kappa
# B2: F1.120.15 (antibody, human IgG1, kappa, V domains shown)
# VH: QVQLQQSGPELVKPGASVKISCKASGNAFSNSWMNWVKQRPGKGLEWIGRVYSEDGDTQYNGKFRDKATLTADRSTSTAYMQLSSLTSEDSAVYFCARWLIYYGTYGAMDYWGQGTSVTVSS
# VL: DIQMTQTTSSLSASLGDRVTISCRASQDINNYLNWYHQKPDGTVKLLIYFTSRPYSGVPSRFSGSGSGTDYSLTISNLEQEDIATYFCQQGNTLPWTFGGGTKLEIKR
# notes: Chimeric IgG1 kappa
# B3: F1.17.1 (antibody, human IgG1, kappa, V domains shown)
# VH: QVQLKESGPGLVAPSQSLSITCTVSGFSLSRYTVHWVRQPPGKGLEWLGMIWGGGSTDYNSALKSRLSISKDNSKSQVFLKMNSLQTDDTAMYYCARPHDFDAGGFAYWGQGTLVTVSA
# VL: QIVLTQSPAILSTSPGEKVTMTCSASSRVNYMYWYQQKPGSSPRLLIYDTSNLASGVPVRFSGSGSGTSYSLTISRMEAEDAATYYCQQWTSYPLTFGAGTKLELKR
# notes: Chimeric IgG1 kappa
# B4: F1.172.13 (antibody, human IgG1, kappa, V domains shown)
# VH: QVTLKESGPGILQSSQTLSLTCSFSGFSLSTSGMGVSWIRQPSGKGLEWLAHIYWDDDKRYNPSLKSRLTISKDTSRNQVFLKITSVDTADTATYYCARAPPPNWDEYYFDYWGQGTTLTVSS
# VL: DIQMTQSPASLSASVGETVTITCRASGNIHNSLAWYQQKQGKSPQLLVHNAKTLADGVPSRFSGSGSGTQYSLKINSLQPEDFGSYYCQHFWSTPPFGGGTKLEIKR
# notes: Chimeric IgG1 kappa
# B5: F2.205.9 (antibody, human IgG1, lambda, V domains shown)
# VH: QVTLKESGPGILQPSQTLSLTCSFSGFSLSTSGMGVGWIRQPSGKGLEWLAHIWWDDDEYYNPALKSRLTISKDTSKNQVFLKIANVDTADTATYYCARISIPYGYYDWFFDVWGTGTTVTVSA
# VL: QAVVTQESALTTSPGETVTLTCRSSTGAVTTRNYANWVQEKPDHLFTGLIGGTNNRAPGVPARFSGSLIGDKAALTITGAQTEDEAIYFCALWYSNHFIFGSGTKVTVLG
# notes: Chimeric IgG1 lambda
# B6: F2.173.9 (antibody, human IgG1, lambda, V domains shown)
# VH: EVQLVESGGDLVKPGESLKLSCEASGFTFSNYAMSWVRQTPDRRLEWVATISSIGSFTYYSDSVKGRFTISRDNVKSTLHLQMNNLKSGDTAIYFCARLGVYFDSWGQGTTLTVSS
# VL: QLVLTQSSSASFSLGASAKLTCTLSSQHSTYTIEWYQQQPHKPPKFVMEIKKDGSHYTGDGIPDRFSGSSSGADRYLSISNIQPEDETIYICGVSDMIKDQFVYVFGGGTKVTVLG
# notes: Chimeric IgG1 lambda
# B7: F2.99.1 (antibody, human IgG1, lambda, V domains shown)
# VH: QVTLKESGPGILQPSQTLSLTCSFSGFSLSTFPMGVGWIRQPSGKGLEWLAHIWWDDDEYYNPVLKSRLTISKDTSKKQVYLRIANVDTVDTATYYCTRANWDRWYFDVWGTGTTVTVSS
# VL: QLVLTQSSSASFSLGASAKLTCTLSRQHSAYTIEWYQQQPLKPPKYVMEVKKDGSHSTGDGIPDRFSGSSSGADRYLSISNIQPEDEAIYICGVGDTIKEHFVFGGGTKVTVLG
# notes: Chimeric IgG1 lambda
# B8: F1.267.9 (antibody, human IgG1, kappa, V domains shown)
# VH: EVQLQQSGPVLVKPGASVKMSCKASGYTFTDFYMNWAKQSHGKSLEWVGVINPYNGGINYNQKFKGKATLTVDKSSSTAYMEFNSLTSEDSAVYYCARRMEYHAMDYWGQGTSVTVSS
# VL: DIVLTQSPASLAVSLGQRATISCRASESVDNYGFDFIHWYQQKPGQPPKLLIYRASNLESGIPARFSGSGSRPDFTLTINPVETDDVATYYCQQSIKDPWTFGGGTKLEIKR
# notes: Chimeric IgG1 kappa
# B9: F1.216.2 (antibody, human IgG1, kappa, V domains shown)
# VH: QVQLQQSGPEVVRPGASVKISCKASGYAFSSSWMNWMKQRPGKALEWIGRIYPGDGDTNYSGEFKVKATLTADKSSSTAYMQLSSLTSEDSAVYFCAREGSYYSNPWYFDYWGQGTTLTVSS
# VL: DVLVTQTPLSLPVSLGDQASISCRSSQSIVQSNGDTYLEWYLQKPGQSPKLLIYKVSNRFSGVPDRFSGSGSGTDFTLKISRVEAEDLGVYYCFQGSHVPFTFGSGTKLEIKR
# notes: Chimeric IgG1 kappa
# B10: F1.224.1 (antibody, human IgG1, kappa, V domains shown)
# VH: EVLLHQSGPELVKPGASVKISCKASGYTFTDFNMDWVRQRHGQSLEWIGDVNPNNGGTIYNQKFKGKATLTVDKSSSTVYMDLRSLTSDDTAVYYCVRLGTSDYGEAWFISWGQGTVVTVSA
# VL: DIVLTQSPASLAVSLGQRATISCRASQSVSTPRYSFMHWYQQKPGQPPKLLIKYASNLESGFPARFTGSGSGTDFTLNIHPVEEEDTAAYYCQQSWAIPWTFGGGTKLEIKR
# notes: Chimeric IgG1 kappa
# Target: T1, human CD22 domain5-7-His
# Assay: ELISA, plate coated with human CD22 domain5-7-His
row,Binder,binding result
1,B1,no binding
2,B2,no binding
3,B3,no binding
4,B4,no binding
5,B5,no binding
6,B6,no binding
7,B7,no binding
8,B8,no binding
9,B9,no binding
10,B10,no binding

# Target: T2, rhesus monkey CD22-ECD-His protein
# Assay: SPR (Biacore), antibody captured on Protein A chip, rhesus CD22 in solution
Binder,Kd [nM],koff [s⁻¹],kon [M⁻¹ s⁻¹]
B1,3.48,0.00127,366000
B2,15.1,0.000637,42100
B3,3.67,0.000531,144000
B4,6.9,0.00138,200000
B5,10.3,0.0014,135000
B6,46.7,0.000883,18900
B7,14.5,0.000545,37600
B8,2.25,6e-05,26700
B9,7.18,0.000538,74900
B10,2.04,0.000107,52300

# Target: T3, human CD22-ECD-His protein
# Assay: SPR (Biacore), antibody captured on Protein A chip, CD22-ECD-His in solution
# Description: Sample buffer and running buffer were HBS-EP+(10 mM HEPES, 150 mM NaCl, 3 mM EDTA, 0.05% surfactant P20) (GE Healthcare; BR-1006-69). The flow-through cell was set to 25° C. The sample block was set to 16° C. Both were pretreated with the running buffer. In each cycle, the antibody to be tested was first captured with a Protein A chip, then a single concentration of CD22 antigen protein was injected. The binding and dissociation process of the antibody and the antigen protein was recorded, and finally Glycine pH 1.5 (GE Healthcare; BR-1003-54) was used to complete chip regeneration. Binding was measured by injecting different concentrations of recombinant human CD22-ECD His protein in solution for 240 s with a flow rate of 30 μL/min. The concentration started from 200 nM (see the detailed results for the actual concentration in the test) and was diluted at 1:1, making a total of 5 concentrations. The dissociation phase was monitored for up to 600 s and was triggered by switching from sample solution to running buffer. The surface was regenerated by washing with a 10 mM of glycine solution (pH 1.5) for 30 s at a flow rate of 30 μL/min. Bulk refractive index difference was corrected by subtracting the response obtained from the goat anti-human Fc surface. Blank injection was also subtracted (=double reference). For calculation of apparent KD and other kinetic parameters, Langmuir 1:1 model was used.
Binder,Kd [nM],koff [s⁻¹],kon [M⁻¹ s⁻¹]
B1,1.44,0.000607,422000
B2,19.5,0.000232,11900
B3,2.07,0.000498,241000
B4,17.6,0.00539,306000
B5,1.57,0.000386,246000
B6,4.74,0.000232,49000
B7,1.55,0.000162,105000
B8,40.9,0.000223,5440
B9,25.3,0.000944,37300
B10,13.8,0.000267,19400
